From US20220125947A1

What was measured:
[1] = biological target: Vg5/Vd2 T cell receptor on SKW3 cells (UniProt A0JD36); assay: flow cytometry, dose-response binding at 37 C on SKW3 cells expressing Vg5/Vd2
[2] = biological target: Vg9/Vd1 T cell receptor on SKW3 cells (UniProt Q99603); assay: flow cytometry, dose-response binding at 37 C on SKW3 cells expressing Vg9/Vd1
[3] = biological target: Vg9/Vd2 T cell receptor on SKW3_4 cells (UniProt Q99603); assay: flow cytometry, dose-response binding at 37 C on SKW3_4 cells expressing Vg9/Vd2
Chain of Vg9/Vd2 T cell receptor on SKW3_4 cells (Q99603 21-122, chain 1 of 2): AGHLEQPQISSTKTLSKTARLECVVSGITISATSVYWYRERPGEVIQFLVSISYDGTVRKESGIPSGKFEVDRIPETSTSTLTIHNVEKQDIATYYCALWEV
Chain of Vg9/Vd2 T cell receptor on SKW3_4 cells (A0JD36 20-115, chain 2 of 2, further chain): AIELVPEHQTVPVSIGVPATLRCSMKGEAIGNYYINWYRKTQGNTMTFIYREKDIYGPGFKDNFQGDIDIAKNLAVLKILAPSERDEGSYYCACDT

[4] = biological target: Vg5/Vd2 T cell receptor on SKW3 cells (UniProt A0JD36); assay: flow cytometry, DRC binding at 37°C on SKW3 cells expressing Vg5/Vd2
[5] = biological target: Vg9/Vd1 T cell receptor on SKW3 cells (UniProt Q99603); assay: flow cytometry, DRC binding at 37°C on SKW3 cells expressing Vg9/Vd1
[6] = biological target: Vg9/Vd2 T cell receptor on SKW3_4 cells (UniProt Q99603); assay: flow cytometry, DRC binding at 37°C on SKW3_4 cells expressing Vg9/Vd2

Chain of Vg9/Vd1 T cell receptor on SKW3 cells (Q99603 21-122): as the sequence (Q99603 21-122, chain 1 of 2) above
Chain of Vg5/Vd2 T cell receptor on SKW3 cells (A0JD36 20-115): as the sequence (A0JD36 20-115, chain 2 of 2, further chain) above

| Max. Activity (fold over background) [1] | Max. Activity (fold over background) [2] | Max. Activity (fold over background) [3] | Max. Activity (fold over background) [4] | Max. Activity (fold over background) [5] | Max. Activity (fold over background) [6] | Binder |
| --- | --- | --- | --- | --- | --- | --- |
| 1.49 | 350 | 160 | – | – | – | VG9B58 (antibody, human IgG1, kappa, V domains shown) VH: QVQLQESGPGLVKPSETLSLTCTVSGGSIKSSYWTWIRQPPGKGLEWIGYMFYLGSTNYNPSLKSRVTMSIDTSRNQFSLKLSSVTAADTAVYYCSRERPVLDAFDIWGQGTMVTVSS VL: DIQMTQSPSAMSASVGDRVTITCRASQDITNYLAWFQQKPGKVPKRLIYAASSLQGGVPSRFSGSGSGTEFTLTISSLQPEDFSTYYCLQHDTYPYTFGQGTKVDIKR |
| 1.07 | 241 | 97.3 | – | – | – | VG9B143 (antibody, human IgG1, lambda, V domains shown) VH: EVQLVESGGGLVQPGGSLRLSCAASGFTFSTYGMNWVRQAPGKGLEWISYISTSSYTIYYSDSVKGRFTVSRDNAKNSLYLQMNSLRDEDTAVYYCAREGDWWYFDLWGRGTTVTVSS VL: QSALTQPASVSGSPGQSITISCTGTSSDVGGYNYVSWYQQHPGKAPKLMIYEVSNRPSGVSYRFSGSKSGNTASLTISGLQAEDEADYYCSSYTSSSTLVFGGGTKLTVLG |
| 2.22 | 328 | 171 | – | – | – | VG9B472 (antibody, human IgG1, kappa, V domains shown) VH: QVQLVESGGGLVKPGGSLRLSCAASGFTFSHYDMNWVRQAPGKGLEWVSSISSSSSYIFYADSVKGRFTISRDNAKNSLLLQMNSLRAEDTAVYHCARDRGVGDTSDYYSFGLDVWGQGTTVTVSS VL: EIVLTQSPSSLSASVGDRVTITCRASQGIATYLAWYQQKPGKVPNLLIYAASTLQSGVPSRFSGSGSGTDFTLTISSLQPEDVATYYCQKYNSAPPWTFGQGTKVEIKR |
| 18.8 | 346 | 154 | – | – | – | VG9B88 (antibody, human IgG1, kappa, V domains shown) VH: EVQLVESGGGLVKPGGSLRLSCAVSGFTFSSYTMNWVRQAPGKGLEWVSSISTSSSYIDYADSVKGRFTISRDNAKKSLYLQMNSLRAEDTAVYYCARDGDMVAPIKGSFDYWGQGTLVTVSS VL: EIVLTQSPLSLPVTPGEPASISCRSSQSLLNSDDGNTYLDWYLQKPGQSPQLLIYTLSYRASGVPDRFSGSGSGTDFTLKISRVEAEDVGVYYCMQRIEFPITFGQGTRLEIKR |
| 18.7 | 290 | 121 | – | – | – | VG9B384 (antibody, human IgG1, lambda, V domains shown) VH: QVQLQESGPALVKPTQTLTLTCTFSGFSLSSSGMCVSWIRQPPGKALEWLTLIDWFDDKYYSTSLKTRLTISKDTSKNQVVLTMTNMDPVDTATYYCARIRGTGAYYYGLDVWGQGTMVTVSS VL: SYELMQPPSVSVSPGQTASITCSGNELGDKYASWYQQQPGQSPVLVIYQDNKRPSGIPERFSGSNSGNTATLTISGTQAMDEADYYCQAWDSSKVVFGGGTKLTVLG |
| – | – | – | 2.76 | 24.9 | 19.1 | VG9B411 (antibody, human IgG1, kappa, V domains shown) VH: EVQLVESGGGLVKPGGSLRLSCSASGFTFSNYDMNWVRQAPGKGLEWVSSISSSSSYIYYADSVKGRFTISRDNAKNSLYLQMNSLRAEDTAVYHCARDVGVTTDYYYYGMDVWGQGTTVTVSS VL: EIVMTQSPSSVSASVGDRVTITCRASQGINSWLAWYQQDPYKAPKLLIYAASTLQSGVPSRFGGRGSGTEFTLTISSLQPEDFAVYYCQQYNNWPRTFGQGTKVDIKR |
| – | – | – | 222 | 2.19 | 155 | VG9B396 (antibody, human IgG1, lambda, V domains shown) VH: EVQLVESGPGLVQPSETLSLTCTVSGDSIRGYYWNWIRQPAGKGLEWIGRIFTTGNTNYNPSLKSRLTMSLDTSKNQFSLKLNSVTAADTAVYYCAREKWDSSSSALYFDFWGQGTLVTVSS VL: QSVLTQAPSVSGAPGQRVTISCTGSSSNIGADYDVKWYQQLPGTAPKLLIYGNTDRPSGVPDRFSGSKSGTSASLAITGLQAEDEADYYCQSYDSRLTGYVVFGGGTKLTVLG |
| – | – | – | 231 | 1.59 | 167 | VG9B470 (antibody, human IgG1, kappa, V domains shown) VH: QVTLKESGPTLVKPTQTLTLTCTFSGFSLTTSGVGVGWIRQPPGKALEWLALILWNDHTIYSPSLKSRLTITKDTSKNQVVLTMTNMDPVDTAAYFCARDKWELRDAFDIWGQGTMVTVSS VL: EIVMTQSPSFLSASVGDRVTFTCRASQGISRYLAWYQQKPGRAPNLLIYVASTLQSGVPSRFSGSGSGTEFTLTISSLLPEDFATYYCQQLISYPYTFSQGTRLEIKR |
| – | – | – | 205 | 2.74 | 152 | VG9B201 (antibody, human IgG1, lambda, V domains shown) VH: QVTLKESGPTLVKPTQTLTLTCTFSGFSLTTHGVGVGWIRQPPRKALEWLALIYWNADKHYSPSLKSRLTITKDTSKNQVVLTMTHMDPVDTATYYCAHEGDWGHYFDFWGQGTLVTVSS VL: QLVLTQPPSVSAAPGQKVTISCSGSSSNIGNNDVSWYQQLPGTAPKLLIYDNNRRPSGIPDRFSGSKSGTSATLGITGLQTGDEADYYCETWDSSLSAIWVFGGGTKVTVLG |
| – | – | – | 284 | 1.36 | 184 | VG9B383 (antibody, human IgG1, lambda, V domains shown) VH: QVQLQESGPGLVKPSETLSLTCTVSSGSISSYYWNWIRQPAGKGLEWVGRIYTIGNTNYNPSLKSRVTMSIDTSKNQFSLNLSSVTAADTAVYFCAREGYYDSSGSFFPGAFGIWGQGTMVTVSS VL: SSELTQPASVSGSPGQSITISCTGTSNDVGSYNLVSWYQQHPGKAPKLMIYAGSKRPSGISNRFSGSKSGNTASLTISGLQAEDEADYYCCSFAGATNVVFGGGTKLTVLG |
| – | – | – | 275 | 1.04 | 177 | VG9B382 (antibody, human IgG1, lambda, V domains shown) VH: QVQLQESGPGLVKPSETLSLTCTVSGDSISGYYWNYIRQPAGKGLDWIGRIFTTGNTNYNPSLKSRVTMSVDTSKNQFSLKLTSVTAADTAVYYCARERWDSSSSALYFDYWGQGTLVTVSS VL: QSVLTQPPSVSGAPGQRVTISCTGSSSNIGADYDIKWYQQLPGTAPKLLIYGNSNRPSGVPDRFSGSKSGTSVSLAITGLQAEDEADYYCQSYDSSMSGYVVFGGGTKLTVLG |
| – | – | – | 207 | 1.16 | 138 | VG9B86 (antibody, human IgG1, kappa, V domains shown) VH: QVQLQESGPGLVKPSETLSLTCTVSGDSISSSYWSWIRQPAGKGLECIGRFYSSGSTSYNPSLKSRVTMAIDTSKNQFSLKLTSVTAADTAVYYCARYSGSYWYFDLWGRGTTVTVSS VL: EIVLTQSPATLSLSPGERATLSCRASQSVSSYLAWYQQRPGQAPRLLIYDTSNRATGIPARFSGSGSGTDFTLTISSLAPEDFAVYYCQQRSDWLLTFGGGTKVEIKR |
| – | – | – | 214 | 7.28 | 148 | VG9B465 (antibody, human IgG1, lambda, V domains shown) VH: QVQLQQSGPGLVKPSETLSLTCTVSGGSITSYYWNWIRQPAGKGLEWIGRIYTIGNTNYNPSLKSRVTMSIDTSKHQFSLKLSSVTGADTAVYYCAREGYYESDGSFFPGAFNIWGQGTMVTVSS VL: SSELTQPASVSGSPGQSITISCTGTSNDVGSYNLVSWYQQHPGKAPKLMIYAGSKRPSGISNRFSGSKSGNTASLTISGLQAEDEADYYCCSYAGTTNVVFGGGTKVTVLG |
| – | – | – | 148 | 6.29 | 151 | VG9B194 (antibody, human IgG1, lambda, V domains shown) VH: EVQLLESGAEVKKPGASVKVSCKASGYTFTGDYMHWVRQAPGQGLEWMGWINPNSGYTNNAEKFQGRVTMTRDTSISTAYMELSRLSSDDTAVYYCTRELDALDVWGQGTMVTVSS VL: QSVLTQPPSASGSPGQSVTISCTGTSSDVGGYNYVSWYQQHPGKAPKLMIYEVSKRPSGVPDRFSGSKSGNTASLTVSGLQAEDEADYYCNSYAGSNNFEVFGGGTKVTVLG |
| 1.49 | 325 | 143 | – | – | – | VG9B430 (antibody, human IgG1, kappa, V domains shown) VH: EVQLLESGGGLVKPGGSLRLSCSASGFTFSSYDMNWVRQAPGKGLEWVSSISSSSSYIYYADSVKGRFTISRDNAKNSLYLQMNSLRAEDTAVYHCARDVGVTTDYYYYGMDVWGQGTMVTVSS VL: EIVLTQSPGTLSLSPGDRATLSCRASQSVASSYLAWYQQKPGQSPRLLIYGASSRATGIPDRFSGSGSGTDFTLTISRLEPEDFAVYYCQQYGSSPPYTFGQGTKLEIKR |
| 2.47 | 344 | 154 | – | – | – | VG9B98 (antibody, human IgG1, kappa, V domains shown) VH: EVQLVQSGGDLVKSGGSLRLSCAASGFTFSSYSMYWVRQAPGKGLEWVSSIGSSSTYIFYADSVKGRFTISRDNAMTSLYLQMNRLGAEDSAVYYCARDGELGPFEYWGQGTLVTVSS VL: EIVLTQSPGTLSLSPGERATLSCRASQSVSTSYLAWFQQKPGQAPRLLIFGTSSRATGIPDRFSGSGSGTDFTLTISRLEPEDFAVYHCLQYGRSPLTFGGGTKVDIKR |
| 1.79 | 317 | 118 | – | – | – | VG9B73 (antibody, human IgG1, kappa, V domains shown) VH: EVQLVQSGGGLVKPGGSLRLSCAASGFTFSNYDMNWVRQAPGKGLEWVSSISSSSSYIYYADSVKGRFTISRDNARNSLFLQMSSLRAEDTAVYYCAREIGVTGTTYYQDYGMDVWGQGTTVTVSS VL: EIVMTQSPGTLSLSPGERATLSCRASQSFSSNYLAWYQQKPGQAPRLLIYGASSRATGIPDRFSGSGSGTDFTLTISRLEPEDFALYYCQQYGSSPPFTFGQGTKVEIKR |
